Reference: paper doi:10.1101/2024.12.23.630133 (bioRxiv, 2024)

Target: the molecule itself
Assay: single-molecule GFP photobleaching

B1: HCN1SM (GFP-tagged human HCN1 channel) (natural protein)
chain: MEGGGKPNSSSNSRDDGNSVFPAKASATGAGPAAAEKRLGTPPGGGGAGAKEHGNSVCFKVDGGGGGGGGGGGGEEPAGGFEDAEGPRRQYGFMQRQFTSMLQPGVNKFSLRMFGSQKAVEKEQERVKTAGFWIIHPYSDFRFYWDLIMLIMMVGNLVIIPVGITFFTEQTTTPWIIFNVASDTVFLLDLIMNFRTGTVNEDSSEIILDPKVIKMNYLKSWFVVDFISSIPVDYIFLIVEKGMDSEVYKTARALRIVRFTKILSLLRLLRLSRLIRYIHQWEEIFHMTYDLASAVVRIFNLIGMMLLLCHWDGCLQFLVPLLQDFPPDCWVSLNEMVNDSWGKQYSYALFKAMSHMLCIGYGAQAPVSMSDLWITMLSMIVGATCYAMFVGHATALIQSLDSSRRQYQEKYKQVEQYMSFHKLPADMRQKIHDYYEHRYQGKIFDEENILNELNDPLREEIVNFNCRKLVATMPLFANADPNFVTAMLSKLRFEVFQPGDYIIREGAVGKKMYFIQHGVAGVITKSSKEMKLTDGSYFGEICLLTKGRRTASVRADTYCRLYSLSVDNFNEVLEEYPMMRRAFETVAIDRLDRIGKKNSILLQKFQKDLNTGVFNNQENEILKQIVKHDREMVQAIAPINYPQMTTLNSTSSTTTPTSRMRTQSPPVYTATSLSHSNLHSPSPSTQTPQPSAILSPCSYTTAVCSPPVQSPLAARTFHYASPTASQLSLMQQQPQQQVQQSQPPQTQPQQPSPQPQTPGSSTPKNEVHKSTQALHNTNLTREVRPLSASQPSLPHEVSTLISRPHPTVGESLASIPQPVTAVPGTGLQAGGRSTVPQRVTLFRQMSSGAIPPNRGVPPAPPPPAAALPRESSSVLNTDPDAEKPRFASNL
  stoichiometry N: 4
